Laboratory results taken from publication PMC7613211 (Nature chemical biology, 2022).

Tests used:
[1] = target: BT1918^3S,6S-GlcNAc (Bacteroides thetaiotaomicron) (UniProt Q8A6G6); test: SEC-MALS
[2] = target: BT3796^4S-Gal/GalNAc (Bacteroides thetaiotaomicron) (UniProt Q8A171); test: SEC-MALS
BT4631^6S-Gal/GalNAc = target: T1, BT4631^6S-Gal/GalNAc (Bacteroides thetaiotaomicron, UniProt Q89YV0); test: desulfation assay; format: biochemical
T1 sequence (Q89YV0 26-520): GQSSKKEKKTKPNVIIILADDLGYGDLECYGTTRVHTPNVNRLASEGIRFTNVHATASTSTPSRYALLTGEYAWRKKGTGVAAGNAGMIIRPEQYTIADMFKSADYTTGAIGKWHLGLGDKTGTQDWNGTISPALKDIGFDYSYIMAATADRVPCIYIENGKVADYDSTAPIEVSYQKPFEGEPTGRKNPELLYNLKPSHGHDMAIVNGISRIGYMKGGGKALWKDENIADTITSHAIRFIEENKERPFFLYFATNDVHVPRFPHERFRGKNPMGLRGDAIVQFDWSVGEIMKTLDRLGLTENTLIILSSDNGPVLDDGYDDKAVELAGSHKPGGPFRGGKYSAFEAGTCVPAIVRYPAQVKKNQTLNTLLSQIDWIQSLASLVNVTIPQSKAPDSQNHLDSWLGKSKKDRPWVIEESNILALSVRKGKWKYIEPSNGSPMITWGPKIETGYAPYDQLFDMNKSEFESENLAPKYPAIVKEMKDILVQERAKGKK

SEC-MALS = target: the molecule itself; test: SEC-MALS

For “BT1918^3S,6S-GlcNAc (from UniProt Q8A6G6 1-500) (enzyme)”, the stoichiometry N [1] was 2.

Molecule “BT3796^4S-Gal/GalNAc (from UniProt Q8A171 1-518) (enzyme)” has a stoichiometry N [2] of 2.

In the case of `O=S(=O)(O)OC[C@H]1OC(O)[C@H](O)[C@@H](O)[C@H]1O` (stereo partly drawn) [6S-Gal], the “desulfation assay (kcat/KM only, supplement)” value (BT4631^6S-Gal/GalNAc) is reported as “BT4631^6S-Gal/GalNAc cleave both 6S-GalNAc and 6S-Gal equally well”.

In the case of `CC(=O)N[C@H]1C(O)O[C@H](COS(=O)(=O)O)[C@H](O)[C@@H]1O` (stereo partly drawn) [6S-GalNAc], the “desulfation assay (kcat/KM only, supplement)” value (BT4631^6S-Gal/GalNAc) is reported as “BT4631^6S-Gal/GalNAc cleave both 6S-GalNAc and 6S-Gal equally well”.

B1: BT3057^4S-Gal/GalNAc (enzyme, Bacteroides thetaiotaomicron, UniProt Q8A397 1-508, looked up)
chain: QERPNIIVFLVDDMGLMDTSVPFIADESGQPVRHPLNDWYHTPNMERLAKQGICFSTFYAQSVSSPSRASIMTGQNATRHGVTNWINAESNNRNPFGPPQWNWKGLRKDMPTMPRVLQQAGYKTIHVGKAHFGCMGSEGENPLNIGFDVNIAGSGIGHPGSYYGEWGYGHIKGQKIRAVPDLEKYHGTDTFLSEALTIEANREITKAVEEKRPFYLNMAHYAVHSPFQADKRFLSRYTDPDKNEQARAFATLIEGMDKSLGDIMDQLEKLGIAENTLILFLGDNGGDAPLGDERGYGSSAPLRGKKGTEFEGGMRVPFIAAWAKPEKKSKVQKNLPIEVGSMQTQLGTIMDIYPTVLSVAGCEVPQNYVIDGFDLKKQLSGKVDKKRPESFLMHFPHAHRGSYFTTYRMGDWKLIYYYLPETPKQPKALLYNLKDDPEERNELSAAHPDQCREMIREMSARLEKEGALYPVDKQGNELKPFVYF
With B1 the “stoichiometry N” value (SEC-MALS) was 2.
